According to US6432692 (WISCONSIN ALUMNI RESEARCH FOUNDATION, dated 2002):

B1: T7 tagged full length ARA9 expressed in bacteria (pET17b-ARA9, PL799) (other)
chain: MASMTGGQQMGMADIIARLREDGIQKRVIQEGRGELPDFQDGTKATFHYRTLHSDDEGTVLDDSRARGKPMELIIGKKFKLPVWETIVCTMREGEIAQFLCDIKHVVLYPLVAKSLRNIAVGKDPLEGQRHCCGVAQMREHSSLGHADLDALQQNPQPLIFHMEMLKVESPGTYQQDPWAMTDEEKAKAVPLIHQEGNRLYREGHVKEAAAKYYDAIACLKNLQMKEQPGSPEWIQLDQQITPLLLNYCQCKLVVEEYYEVLDHCSSILNKYDDNVKAYFKRGKAHAAVWNAQEAQADFAKVLELDPALAPVVSRELRALEARIRQKDEEDKARFRGIFSH
notes: Expressed in BL21(DE3); also called T7-tagged ARA9; FL
B2: T7 tagged FKBP52 expressed in bacteria (pET17b-FKBP52, PL947) (other)
chain: MASMTGGQQMGMTAEEMKAAESGAQSAPLPLEGVDISPKQDEGVLKVIKREGTGTETPMIGDRVFVHYTGWLLDGTKFDSSLDRKDKFSFDLGKGEVIKAWDIAVATMKVGELCRITCKPEYAYGSAGSPPKIPPNATLVFEVELFEFKGEDLTDDEDGGIIRRIRTRGEGYARPNDGAIVEVALEGYYKDRLFDQRELRFEVGEGESLDLPCGLEKAIQRMEKGEHSILYLKPSYAFGNAGKEKFQIPPYAELKYEVHLKSFEKAKESWEMSSEEKLEQSAIVKERGTVYFKEGKYKQALLQYKKIVSWLEYESSFSSEEVQKAQALRLASHLNLAMCHLKLQAFSAAVESCNKALELDSNNEKGLFRRGEAHLAVNDFDLARADFQKVLQLYPSNKAAKAQLAVCQQRIRKQIAREKKLYANMFERLAEEENKAKAEVAAGDHPMDTEMKDERNDVAGSQSQVETEA

Assays:
[1] = biological target: T1, full length aryl hydrocarbon receptor (AHR) translated in reticulocyte lysate (pSportAHR) (UniProt P30561 1-805, limits assumed); assay: co-immunoprecipitation of 35S-labeled AHR with T7-agarose, bands quantified with a phosphoimager
T1 construct: also called Ah receptor; radiolabeled AHR
T1 sequence (looked up): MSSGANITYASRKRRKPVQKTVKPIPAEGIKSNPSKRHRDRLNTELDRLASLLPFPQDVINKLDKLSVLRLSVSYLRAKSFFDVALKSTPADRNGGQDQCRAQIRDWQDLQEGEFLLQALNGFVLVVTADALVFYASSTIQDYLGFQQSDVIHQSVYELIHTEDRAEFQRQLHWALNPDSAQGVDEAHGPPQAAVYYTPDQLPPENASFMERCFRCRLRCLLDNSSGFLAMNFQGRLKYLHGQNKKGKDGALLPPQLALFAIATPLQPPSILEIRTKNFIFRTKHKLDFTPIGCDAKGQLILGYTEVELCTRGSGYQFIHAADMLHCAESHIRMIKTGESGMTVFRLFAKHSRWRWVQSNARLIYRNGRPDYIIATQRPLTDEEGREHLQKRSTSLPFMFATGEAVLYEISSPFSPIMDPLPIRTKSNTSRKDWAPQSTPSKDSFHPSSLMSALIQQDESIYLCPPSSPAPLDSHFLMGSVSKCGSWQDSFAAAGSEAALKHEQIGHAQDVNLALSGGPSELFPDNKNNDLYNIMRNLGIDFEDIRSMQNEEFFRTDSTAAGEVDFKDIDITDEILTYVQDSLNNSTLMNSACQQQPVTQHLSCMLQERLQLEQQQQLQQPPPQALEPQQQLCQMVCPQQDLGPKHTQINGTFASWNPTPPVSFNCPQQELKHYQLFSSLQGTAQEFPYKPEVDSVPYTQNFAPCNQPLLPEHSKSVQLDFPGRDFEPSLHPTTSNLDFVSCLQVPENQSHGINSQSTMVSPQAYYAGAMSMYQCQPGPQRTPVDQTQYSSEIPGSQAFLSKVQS
Procedure: (§1) The bacterial expression of FKBP52 and ARA9 was confirmed by SDS-PAGE followed by both Coomassie stain and western blot analysis with an anti-T7 peptide antibody (Novagen). Immunoprecipitations of complexes with either AHR- or Hsp90 were performed in MENG buffer as above, using anti-T7 agarose (Novagen). The complexes were then precipitated and analyzed by SDS-PAGE and autoradiography.
(§2) Figure 3A: FIG. 3A (Top). AHR was translated in reticulocyte lysates in the presence of ^35S-methionine. Labeled proteins were then incubated in the presence of T7 tagged ARA9, T7 tagged FKBP52 or untransformed BL21 extract and complexes were separated and visualized as above. "Input" lanes represent 25% of total protein (AHR or Hsp90) used in experiments. Bottom: The bands radioactivity present in the AHR or Hsp90 bands was quantified using a phosphoimager to make comparisons of relative coimmunoprecipitation. The bars represent the means from three independent experiments. The error bars indicate the standard error of the mean. Figure 3B: FIG. 3B. Hsp90 was used in a similar experiment described in FIG. 3A.
(§3) Specificity of ARA9 for AHR: The structural similarity between ARA9 and FKBP52 led us to compare the relative capacity of these two factors to bind AHR. […] The AHR-ARA9 or AHR-FKBP52 associations were determined by coimmunoprecipitation with T7-agarose. […]

[2] = biological target: T2, Hsp90; assay: co-immunoprecipitation of 35S labeled Hsp90 with T7-agarose, bands quantified with a phosphoimager
T2 construct: also called radiolabeled Hsp90; 35S labeled Hsp90
Procedure: as §1, §2, §3

Binder	efficiency at precipitating AHR relative to FKBP52 [1] [times]	capacity to interact with Hsp90 relative to ARA9 [2] [fold]
B1	~4	
B2		4
